# Assay results published in patent publication US20150005238A1 (PAION DEUTSCHLAND, published 2015).
# Positions count from the first letter of the chain named.
# B1: TME with Ala inserted between 386 and 387 (receptor)
# chain: CSVENGGCEHACNAIPGAPRCQCPAGAALQADGRSCTASATQSCNDLCEHFCVPNPDQPGSYSCMCETGYRLAADQHRCEDVDDCILEPSPCPQRCVNTQGGFECHCYPNYDLVDGECVEPVDPCFRANCEYQCQPLNQTSYLCVCAEGFAPIPHEPHRCAQMFCNQTACPADCDPNTQASCECPEGYILDDGFICTDIDECENGGFCSGVCHNLPGTFECICGPDSALARHIGTDC
# B2: TME with Ala inserted between 389 and 390 (receptor)
# chain: B1 chain with A161Q, Q162M, M163F, F164A
# B3: TME with Ala inserted between 387 and 388 (receptor)
# chain: B1 chain with A161Q, Q162A
# B4: TME with Ala inserted between 388 and 389 (receptor)
# chain: B1 chain with A161Q, Q162M, M163A
# B5: TME with deletion of Gln387 (receptor)
# chain: CSVENGGCEHACNAIPGAPRCQCPAGAALQADGRSCTASATQSCNDLCEHFCVPNPDQPGSYSCMCETGYRLAADQHRCEDVDDCILEPSPCPQRCVNTQGGFECHCYPNYDLVDGECVEPVDPCFRANCEYQCQPLNQTSYLCVCAEGFAPIPHEPHRCMFCNQTACPADCDPNTQASCECPEGYILDDGFICTDIDECENGGFCSGVCHNLPGTFECICGPDSALARHIGTDC
# B6: TME with deletion of Phe389 (receptor)
# chain: B5 chain with M161Q, F162M
# B7: TME with deletion of Met388 (receptor)
# chain: B5 chain with M161Q
# B8: Recombinant soluble thrombomodulin (Solulin) (receptor)
# chain: EPQPGGSQCVEHDCFALYPGPATFLNASQICDGLRGHLMTVRSSVAADVISLLLNGDGGVGRRRLWIGLQLPPGCGDPKRLGPLRGFQWVTGDNNTSYSRWARLDLNGAPLCGPLCVAVSAAEATVPSEPIWEEQQCEVKADGFLCEFHFPATCRPLAVEPGAAAAAVSITYGTPFAARGADFQALPVGSSAAVAPLGLQLMCTAPPGAVQGHWAREAPGAWDCSVENGGCEHACNAIPGAPRCQCPAGAALQADGRSCTASATQSCNDLCEHFCVPNPDQPGSYSCMCETGYRLAADQHRCEDVDDCILEPSPCPQRCVNTQGGFECHCYPNYDLVDGECVEPVDPCFRANCEYQCQPLNQTSYLCVCAEGFAPIPHEPHRCQLFCNQTACPADCDPNTQASCECPEGYILDDGFICTDIDECENGGFCSGVCHNLPGTFECICGPDSALAGQIGTDCDSGKVDGGDSGAGEPPPSPTPGSTLTPP
# notes: Obtained from PAION; also called sTM; recombinant human soluble thrombomodulin
# Target: thrombin (APC / TAFI activation assays of Examples V, VI and VIII; source not stated for the assay)
# Experiment: cell-based or functional assay
row,Binder,cofactor activity (APC assay)
1,B1,< 10 % of wild type TME
2,B2,< 10 % of wild type TME
3,B3,< 10 % of wild type TME
4,B4,< 10 % of wild type TME
5,B5,< 10 % of wild type TME
6,B6,< 10 % of wild type TME
7,B7,< 10 % of wild type TME

# Target: human thrombin (human, UniProt P00734 328-622)
# Experiment: equilibrium binding titration in solution; perturbation of DAPA fluorescence (20 nM thrombin, 20 nM DAPA, Solulin titrated), nonlinear regression
# Procedure: The binding of thrombin to thrombomodulin was measured as an equilibrium binding assay. A solution containing thrombin (20 nM), thrombomodulin (1.54 μM), and DAPA (20 nM, dansylarginine N-3-(ethyl-1,5-pentanediyl)amide, a fluorescent, reversible thrombin inhibitor) in 0.02 M Tris-HCl, 0.15 M NaCl, 5.0 mM CaCl₂, 0.01% Tween 80, pH 7.4, was added in small successive aliquots to an otherwise identical solution that lacked thrombomodulin. The additions were performed in a cuvette fitted with a magnetic stirrer in the sample compartment of a Perkin-Elmer model LS50B spectrofluorimeter. Intensity values were continuously recorded with excitation and emission wavelengths of 280 and 545 nm, respectively. A 430-nm cut-off filter was used in the emission beam. The intensity of fluorescence, I, was assumed to be the sum of intensities from thrombin-DAPA (T·D) and thrombin-thrombomodulin-DAPA (T·TM·D). That is, I=i₁·[T·D]+i₂·[T·TM·D], where i₁ and i₂ are the coefficients of fluorescence for T·D and T·TM·D (since excitation was at 280 nm, the emission from free DAPA was negligible).
row,Binder,Kd [µM]
1,B8,0.023
